Consider 72 sequences from the supplement of paper PMC10567573.

The data set is described as follows: protein stability index of a GFP-peptide fusion (GPS, HEK-293T) (PSI 1-6); higher = more stable.
[1] abbreviates: treatment: DMSO, c terminus: a fixed tail appended.
Where [2] appears, read: treatment: MLN4924 1 uM, 8 h, c terminus: a fixed tail appended.
[3] abbreviates: treatment: DMSO, c terminus: native.
[4] abbreviates: treatment: MLN4924 1 uM, 8 h, c terminus: native.

± gives the standard deviation.
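Further: 24-mer peptide tiles fused after GFP, lentivirally expressed, FACS-sorted into six equal bins by GFP/DsRed ratio, decoded by Illumina sequencing, PSI is the read-weighted mean bin number.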

Regarding MELGPEPPHRRRLLFACSPPPASQ [CDC25A], the protein stability index was 3.57 ± 0.2 under setting [1] and 3.47 ± 0.17 under setting [2].

Take MELPSGPGPERLFDSHRLPGDCFL [AUP1]: the protein stability index reads like this: under setting [1], 3.36 ± 0.36; under setting [2], 3.27 ± 0.35. The corresponding values for MENLLQATKSHVDKVIMKLGKTNA [DYNC2LI1] are 3.24 ± 0.28 and 3.34 ± 0.38. The matching figures for MEPGGARLRLQRTGGLGGERERQP [SOAT2]: 4.58 ± 0.12 and 4.65 ± 0.21. The corresponding values for MEREFNNLLALGTDRKLDDGDDKV [PPFIA4] are 5.47 ± 0.32 and 5.34 ± 0.58. Consider MGREKCHQYWPAERSARYQYFVVD [PTPRD], for which the protein stability index by setting is: under setting [1], 2.3 ± 0.34; under setting [2], 2.33 ± 0.14.

As to MIAFFFIIIYLGPMVLMIIVMCVQ [CDS2], the protein stability index runs as follows: under setting [1], 3.3 ± 0.31; under setting [2], 3.12 ± 0.93. The corresponding values for MIIEHKIVIADVKLVADFQRYILY [ZNF277] are 3.58 ± 0.73 and 2.74 ± 1.1. The corresponding values for MKSYSFLREAVPGILRARRGEGIQ [SOAT2] are 2.54 ± 0.2 and 2.77 ± 0.39. The matching figures for MLQEQLDAINEEIRMIQEEKESTE [PPFIA4]: 4.75 ± 0.41 and 4.84 ± 0.11.

MNQTCCPQYTIRCRPLQFQPSKSH [ATE1]: the protein stability index came out at 2.06 ± 0.27 under setting [1] and 2.1 ± 0.25 under setting [2]. As to MPCTWVMACAYAPSGCAIACGGLD [GNB5], the protein stability index under setting [1] amounted to 2.77 ± 0.53 and the protein stability index under setting [2] was determined as 2.88 ± 0.4. The matching figures for MPEERASKYENYFSASERLSLKRE [HESX1]: 4.41 ± 0.51 and 4.75 ± 0.31. MPSETLWEIAKAEVEKRGINGSEG [DYNC2LI1]: the protein stability index runs as follows: under setting [1], 4.88 ± 0.15; under setting [2], 5.1 ± 0.1. The matching figures for MPTGPPEDRLSLKFLPSSEEDNDD [DRICH1]: 5.47 ± 0.2 and 5.59 ± 0.15. The corresponding values for MSERLRPRKRRRNGNEEDNHLPPQ [FAM104A] are 5.3 ± 0.14 and 5.39 ± 0.14.

In the case of MSRSGDRTSTFDPSHSDNLLHGLN [KLHL14], the protein stability index by setting is: under setting [1], 4.13 ± 0.24; under setting [2], 4.09 ± 0.26. With MSYFGEHFWGEKNHGFEVLYHSVK [FCHO1], the protein stability index was found to be 2.59 ± 0.24 under setting [1] and 2.11 ± 0.16 under setting [2]. The corresponding values for NAESSKTWLKGKFTELRLLLDEEE [TRIM14] are 4.14 ± 0.34 and 4.41 ± 0.47. As to NAGISFSVKKQGETVADVRTLPNA [MLH1], the protein stability index by setting is: under setting [1], 4.37 ± 0.46; under setting [2], 4.11 ± 0.1. The matching figures for NCSDFLESKGCFANTTPSGKSVSS [SPATS1]: 4.15 ± 0.2 and 4.35 ± 0.17.

NDDSADYQHFLQDCVDGLFKEVKE [DLC1]: the protein stability index was determined as 2.96 ± 0.5 under setting [1] and 3.54 ± 0.62 under setting [2]. The corresponding values for NGLTLLILGVIGLFTIPLLYRQHQ [RTN2] are 3.39 ± 0.37 and 2.93 ± 0.71. For NGVNVLDEPYEKVVDRIQSSGKNV [PDZK1], the protein stability index under setting [1] stood at 5.03 ± 0.3.

Sequence NHAPLREQGAIPRLVQLLVRAHQD [CTNNB1] gave a protein stability index under setting [1] of 2.91 ± 0.23 and a protein stability index under setting [2] of 2.91 ± 0.19.

In the case of NIQIIEYEKKQTLGQNDTGFSCDG [BTBD1], the protein stability index by setting is: under setting [1], 4.36 ± 0.4; under setting [2], 4.034 ± 0.016. On to NKHLTTHQGIKPYKCSWCGKSFSQ [ZNF75A], for which the protein stability index runs as follows: under setting [1], 2.35 ± 0.45; under setting [2], 2.06 ± 0.37. For NKKNILLRLLREEEYVAPPRGPLP [TRAF3IP2], the protein stability index stood at 2.44 ± 0.25 under setting [1] and 3.06 ± 0.54 under setting [2]. The matching figures for NKRCKDKKKSILMKQLQQQQHSDK [ISL2]: 4.45 ± 0.18 and 4.5 ± 0.12. In the case of NLANCERLIEVEDMMVMGRKPDPM [SMTNL2], the protein stability index reads like this: under setting [1], 3.36 ± 0.25; under setting [2], 3.48 ± 0.31.

On to NLISLLALRVLAEQNIIPSATNVT [TENT5C], for which the protein stability index runs as follows: under setting [1], 2.94 ± 0.39; under setting [2], 3.12 ± 0.36.

Regarding NLKQLRKRGSIPTSLTALSLASAS [PPFIA4], the protein stability index by setting is: under setting [1], 3 ± 0.15; under setting [2], 3.09 ± 0.24. The matching figures for NLLQPNFEAAFGTTPSTSSSSSFD [SNAP91]: 4.11 ± 0.093 and 4.08 ± 0.046. For NLQELLELDSSSSLCVLVSTVGKL [CEP70], the protein stability index is 2.29 ± 0.49 under setting [1] and 2.43 ± 0.47 under setting [2].

Take NQLQYMQNVVVKTLWKHQFAWPFY [BRD3]: the protein stability index was 3.03 ± 0.46 under setting [1] and 2.64 ± 0.36 under setting [2].

For NSQVHRETEDVDYGETDFHKQDGK [TMEM40], the protein stability index is, setting by setting: under setting [1], 5.54 ± 0.12; under setting [2], 5.52 ± 0.17. With NSTQADEGKTKKGVLEAPDTQVNP [FBXO34], the protein stability index runs as follows: under setting [1], 5.49 ± 0.19; under setting [2], 5.41 ± 0.18.

NVEHYQELKKMVQQSDLGQYVTFL [ALG2]: the protein stability index under setting [1] is 2.27 ± 0.12 and the protein stability index under setting [2] amounted to 2.43 ± 0.27. The corresponding values for NVLSDLYAMGITECDNMLMLLSVS [SEPHS2] are 2.93 ± 0.55 and 2.71 ± 0.42. The matching figures for NWGQDPGVSANASKAWHQKSHFQN [PBXIP1]: 2.94 ± 0.5 and 3.43 ± 0.32. For PALAPVPRNSCITCPQCHRSLILD [TRIM9], the protein stability index reads like this: under setting [1], 3.31 ± 0.3; under setting [2], 3.37 ± 0.33. As to PANTQINDIRIFLEKVLEENAQKK [VPS39], the protein stability index under setting [1] was found to be 3.73 ± 0.22 and the protein stability index under setting [2] is 3.61 ± 0.36. The corresponding values for PARAGSEVEWTEDLALDLGPQSRE [C2CD2L] are 5.24 ± 0.23 and 5.31 ± 0.23. The corresponding values for PASPNPFVHELHLSRLQRVKFCLL [LPCAT4] are 2.56 ± 0.6 and 2.51 ± 0.3.

Regarding PATHLSPALAPVPRNSCITCPQCH [TRIM9], the protein stability index under setting [1] amounted to 3.82 ± 0.39 and the protein stability index under setting [2] stood at 3.87 ± 0.23.

With PDAETLKVMKQPRCGVPDVAQFVL [MMP1], the protein stability index by setting is: under setting [1], 2.4 ± 0.3; under setting [2], 2.31 ± 0.27. Turning to PDMSVTKVVVHKETEITPEDGED [EPB41L3], the protein stability index is, setting by setting: under setting [3], 5.5 ± 0.35; under setting [4], 5.57 ± 0.29. With PDPTPPEPEEEILGSDDEEQEDPA [SRPK2], the protein stability index is 5.62 ± 0.33 under setting [1] and 5.53 ± 0.21 under setting [2]. The corresponding values for PDTAPPSERPLEDLRLRLDHLGWV [RTN2] are 3.39 ± 0.44 and 3.24 ± 0.38.

Turning to PEADCIPKEQLSTSFQWVTKWVDY [PLK2], the protein stability index runs as follows: under setting [1], 3.01 ± 0.34; under setting [2], 2.8 ± 0.48.

Take PEGIQKVAKCLIGVNYPKPMVNHA [CRY1]: the protein stability index amounted to 2.46 ± 0.18 under setting [1] and 2.87 ± 0.23 under setting [2]. PEPPPVSFQPYHPLHFRGSNGMS [TENT5D]: the protein stability index runs as follows: under setting [3], 3.77 ± 0.29; under setting [4], 3.91 ± 0.22. As for PETAHPNLVLSEDRKSVKFVETRL [TRIM39], the protein stability index amounted to 4.04 ± 0.45 under setting [1] and 4.15 ± 0.16 under setting [2]. The sequence PFNGDCRITKDNRRHCQACRLKRC [VDR] gave a protein stability index under setting [1] of 3.19 ± 0.3 and a protein stability index under setting [2] of 3.4 ± 0.34. The corresponding values for PFPAGPLAVAGGPRKTAAPVNALV [ESRRA] are 3.7 ± 0.34 and 3.61 ± 0.31. The matching figures for PGARTRAGAARVARWRRLRLQQLR [FBXO33]: 4.12 ± 0.28 and 4.51 ± 0.26.

As for PGEVVPSGESGLRRRGSDPASGEV [TMEM40], the protein stability index runs as follows: under setting [1], 5.52 ± 0.32; under setting [2], 5.43 ± 0.23.

PGPKGDPGEKSHWGEGLHQLREAL [EMID1]: the protein stability index reads like this: under setting [1], 3.32 ± 0.13; under setting [2], 3.46 ± 0.52. The corresponding values for PGSQALPAPALAPDQLPQNNTLVA [FBXO28] are 4.74 ± 0.35 and 4.88 ± 0.37. For the sequence PHHHSFYDFIVTKARGKSGPLFNF [FAM50A], the protein stability index under setting [1] was found to be 2.29 ± 0.29 and the protein stability index under setting [2] turned out to be 2.22 ± 0.16. The matching figures for PHMAEQTFEQAIQAASRIIRNEQF [CDC25B]: 3.1 ± 0.29 and 3.39 ± 0.17. Turning to PICVQIPWDKNPEALAKWAEGRTG [CRY1], the protein stability index came to 3.51 ± 0.35 under setting [1] and 3.6 ± 0.24 under setting [2].

In the case of PKAERLRWSPAQEESFRQMVVIHK [ZNF232], the protein stability index amounted to 3.19 ± 0.31 under setting [1] and 3.25 ± 0.37 under setting [2]. The corresponding values for PKGWRQLAQEAEAWLNYPCFKNWD [OAS1] are 2.72 ± 0.23 and 2.82 ± 0.18. The corresponding values for PKPSVLFLHPDLGVGGAERLVLDA [ALG2] are 3.23 ± 0.29 and 3.15 ± 0.23. For the sequence PLAQNERCLHMFLQDEIIDKSYTP [SNX3], the protein stability index was 2.97 ± 0.24 under setting [1] and 3.39 ± 0.22 under setting [2]. Turning to PLCMAVLTTASIIQLGVTPPGYSA [SLC6A17], the protein stability index runs as follows: under setting [1], 3.14 ± 0.94; under setting [2], 2.94 ± 0.4. The sequence PLFTPQSPVTATLSDEDDGFVDLL [CDC25A] registered a protein stability index under setting [1] of 4.65 ± 0.13 and a protein stability index under setting [2] of 4.43 ± 0.38. As for PLLPSDLRRTGCAALRIANCKLFR [GAN], the protein stability index is 2.29 ± 0.34 under setting [1] and 2.35 ± 0.24 under setting [2]. The matching figures for PLNCAPCPRRSEPVVQCQYPSGAE [IRX6]: 3.93 ± 0.14 and 3.94 ± 0.12. The corresponding values for PLPWSECPVVRNGSVAVVEAECEK [SLC6A17] are 5.443 ± 0.034 and 5.3 ± 0.29.

PLSAVYRICLGKFTFPGMSLDKRQ [TPRG1] displayed a protein stability index under setting [1] of 2.23 ± 0.46 and a protein stability index under setting [2] of 2.24 ± 0.22.
